As usually defined, the Kd is the free concentration of one partner at which half of the binding sites on the other are occupied at equilibrium, for simple one-to-one binding. High values mean lower affinity, low ones higher affinity. As a reminder, the Ki is a dissociation constant, usually derived from enzyme kinetics or from competition with a known ligand. Lower therefore signals tighter binding. By Km is commonly meant the substrate concentration at which the rate is half of its maximum.

Data set [1] addresses T1, CtCE2 (Acetivibrio thermocellus, UniProt P10477).
T1 construct: gene celE; C-terminal CE2 esterase module only, residues 482-814 of the full-length enzyme, C-terminal His6 tag, pET22b, E. coli BL21
As to the kind of experiment: isothermal titration calorimetry. To be noted: 50 mM HEPES-Na, 25 °C; pH 8.0 with 300 mM NaCl (Methods; Figure 5 legend says pH 7.0); binds across esterase active site. The class given is binding. The text has this: (§1) isothermal titration calorimetry on CtCE2
Background: Isothermal titration calorimetry measures the heat released or taken up as one component is titrated into another.

Data set [2] concerns the target T2, CtCE2 (Acetivibrio thermocellus, UniProt P10477, W746A).
T2 construct: gene celE; C-terminal CE2 esterase module only, residues 482-814 of the full-length enzyme, C-terminal His6 tag, pET22b, E. coli BL21
As to the kind of experiment: isothermal titration calorimetry. To be noted: 50 mM HEPES-Na, 25 °C; pH 8.0 with 300 mM NaCl (Methods; Figure 5 legend says pH 7.0); binds across esterase active site. The format is binding.
From the text: as §1

Data set [3] deals with T3, CtCE2 (Acetivibrio thermocellus, UniProt P10477, H791A).
T3 construct: gene celE; C-terminal CE2 esterase module only, residues 482-814 of the full-length enzyme, C-terminal His6 tag, pET22b, E. coli BL21
T3 sequence (P10477 482-814 H791A): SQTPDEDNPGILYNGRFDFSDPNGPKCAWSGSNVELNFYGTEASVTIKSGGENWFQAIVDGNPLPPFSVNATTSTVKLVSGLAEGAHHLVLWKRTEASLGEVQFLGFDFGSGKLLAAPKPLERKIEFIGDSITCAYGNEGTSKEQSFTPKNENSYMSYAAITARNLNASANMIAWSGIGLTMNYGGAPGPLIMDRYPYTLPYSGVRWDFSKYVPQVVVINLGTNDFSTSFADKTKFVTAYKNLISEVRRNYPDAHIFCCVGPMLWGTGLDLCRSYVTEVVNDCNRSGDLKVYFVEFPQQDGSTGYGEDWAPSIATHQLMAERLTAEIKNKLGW
Nature of the data set: isothermal titration calorimetry. The format is binding. The note with it: 50 mM HEPES-Na, 25 °C; pH 8.0 with 300 mM NaCl (Methods; Figure 5 legend says pH 7.0); binds across esterase active site.
From the text: as §1

Data set [4] concerns the target T4, CtCE2 (Acetivibrio thermocellus, UniProt P10477, Y683A).
T4 construct: gene celE; C-terminal CE2 esterase module only, residues 482-814 of the full-length enzyme, C-terminal His6 tag, pET22b, E. coli BL21
Nature of the data set: isothermal titration calorimetry. The note with it: 50 mM HEPES-Na, 25 °C; pH 8.0 with 300 mM NaCl (Methods; Figure 5 legend says pH 7.0); binds across esterase active site. The format is binding.
From the text: as §1

Data set [5] concerns the target T5, CtCE2 (Acetivibrio thermocellus, UniProt P10477, S612A).
T5 construct: gene celE; C-terminal CE2 esterase module only, residues 482-814 of the full-length enzyme, C-terminal His6 tag, pET22b, E. coli BL21
As to the kind of experiment: isothermal titration calorimetry. The note with it: 50 mM HEPES-Na, 25 °C; pH 8.0 with 300 mM NaCl (Methods; Figure 5 legend says pH 7.0); binds across esterase active site. The class given is binding.
From the text: as §1

Data set [6] concerns the target T1, CtCE2. Nature of the data set: inhibition of 4-nitrophenyl acetate hydrolysis. The format is biochemical. The note with it: substrate 4-nitrophenyl acetate; noncompetitive; 37 °C. The text has this: inhibition of 4-nitrophenyl acetate hydrolysis on CtCE2
Substrate in data set [7]: CC(=O)Oc1ccc([N+](=O)[O-])cc1
Nature of the data set: purified protein. The class given is biochemical, Cellvibrio japonicus. The note with it: 50 mM sodium phosphate pH 7.0, 1 mg/ml BSA.

Substrate in data set [8]: CC(=O)Oc1ccc([N+](=O)[O-])cc1
As to the kind of experiment: purified protein. The class given is biochemical, Acetivibrio thermocellus. To be noted: 50 mM sodium phosphate pH 7.0, 1 mg/ml BSA.

T4 sequence (P10477 482-814 Y683A): as the sequence (P10477 482-814 H791A) above, with Y202A, A310H counted along it
T5 sequence (P10477 482-814 S612A): as the sequence (P10477 482-814 H791A) above, with S131A, A310H counted along it
T2 sequence (P10477 482-814 W746A): as the sequence (P10477 482-814 H791A) above, with W265A, A310H counted along it

At CtCE2 [1], `OC[C@H]1O[C@@H](O[C@H]2[C@H](O)[C@@H](O)[C@H](O[C@H]3[C@H](O)[C@@H](O)C(O)O[C@@H]3CO)O[C@@H]2CO)[C@H](O)[C@@H](O)[C@@H]1O` (stereo partly shown) [cellotriose] registered a Kd above 1000 µM.

Turning to `OC[C@H]1O[C@@H](O[C@H]2[C@H](O)[C@@H](O)[C@H](O[C@H]3[C@H](O)[C@@H](O)[C@H](O[C@H]4[C@H](O)[C@@H](O)[C@H](O[C@H]5[C@H](O)[C@@H](O)[C@H](O[C@H]6[C@H](O)[C@@H](O)C(O)O[C@@H]6CO)O[C@@H]5CO)O[C@@H]4CO)O[C@@H]3CO)O[C@@H]2CO)[C@H](O)[C@@H](O)[C@@H]1O` (stereo partly shown) [cellohexaose], the Kd on CtCE2 [2] was above 1000 µM; on CtCE2 [3], 667 µM; at CtCE2 [4], 37 µM; on CtCE2 [5] it was 4.1 µM; on CtCE2 [1], 33 µM. On CtCE2 [6], the affinity, expressed as Ki, was 3.1 µM.

Take `OC[C@H]1O[C@@H](O[C@H]2[C@H](O)[C@@H](O)[C@H](O[C@H]3[C@H](O)[C@@H](O)[C@H](O[C@H]4[C@H](O)[C@@H](O)[C@H](O[C@H]5[C@H](O)[C@@H](O)C(O)O[C@@H]5CO)O[C@@H]4CO)O[C@@H]3CO)O[C@@H]2CO)[C@H](O)[C@@H](O)[C@@H]1O` (stereo partly shown) [cellopentaose]: the Kd on CtCE2 [1] was found to be 71 µM.

As to `OC[C@H]1O[C@@H](O[C@H]2[C@H](O)[C@@H](O)[C@H](O[C@H]3[C@H](O)[C@@H](O)[C@H](O[C@H]4[C@H](O)[C@@H](O)C(O)O[C@@H]4CO)O[C@@H]3CO)O[C@@H]2CO)[C@H](O)[C@@H](O)[C@@H]1O` (stereo partly shown) [cellotetraose], the Kd on CtCE2 [1] worked out at 333 µM.

B1: CjCE2A (Cellvibrio japonicus Ueda107) (protein)
chain: NTQSLMSSTHTIAASDPHIQVMGRTHINDDASLTFGYPGVSLSTIVAGSRLTAEMQSSNGNSWIDVIIDNHPPTSIKLDAQQQTVELFHFPNSGEHRVEIIHRSENWHGQVTLKQLTLTGTQFLPAPVLPQRKILVLGDSVTCGEAIDRVAGEDKNTRWWNARESYGMLTAKALDAQVQLVCWGGRGLIRSWNGKTDDANLPDFYQFTLGDTGQAPQWDHHRYQPDLIISAIGTNDFSPGIPDRATYINTYTRFVRTLLDNHPQATIVLTEGAILNGDKKAALVSYIGETRQQLHSNRVFYASSSHHPGDNSDAHPTKDQHAAMARELTPQLRQIMDW
notes: mature form (signal peptide removed), C-terminal His6 tag, pET22b, E. coli BL21; catalytic triad Ser-160, His-335, Asp-333; Trp-127, Trp-212
As to B1, in “purified protein [7]”, the Km worked out at 339 µM and the kcat was 7,717 min-1.

B2: CtCE2 (Acetivibrio thermocellus ATCC 27405; D789A) (protein)
chain: SQTPDEDNPGILYNGRFDFSDPNGPKCAWSGSNVELNFYGTEASVTIKSGGENWFQAIVDGNPLPPFSVNATTSTVKLVSGLAEGAHHLVLWKRTEASLGEVQFLGFDFGSGKLLAAPKPLERKIEFIGDSITCAYGNEGTSKEQSFTPKNENSYMSYAAITARNLNASANMIAWSGIGLTMNYGGAPGPLIMDRYPYTLPYSGVRWDFSKYVPQVVVINLGTNDFSTSFADKTKFVTAYKNLISEVRRNYPDAHIFCCVGPMLWGTGLDLCRSYVTEVVNDCNRSGDLKVYFVEFPQQDGSTGYGEAWHPSIATHQLMAERLTAEIKNKLGW
notes: C-terminal CE2 esterase module only, residues 482-814 of the full-length enzyme, C-terminal His6 tag, pET22b, E. coli BL21
With B2, in “purified protein [8]”, the Km was 75 µM and the kcat was 2,512 min-1.

B3: CtCE2 (Acetivibrio thermocellus ATCC 27405; D789N) (protein)
chain: SQTPDEDNPGILYNGRFDFSDPNGPKCAWSGSNVELNFYGTEASVTIKSGGENWFQAIVDGNPLPPFSVNATTSTVKLVSGLAEGAHHLVLWKRTEASLGEVQFLGFDFGSGKLLAAPKPLERKIEFIGDSITCAYGNEGTSKEQSFTPKNENSYMSYAAITARNLNASANMIAWSGIGLTMNYGGAPGPLIMDRYPYTLPYSGVRWDFSKYVPQVVVINLGTNDFSTSFADKTKFVTAYKNLISEVRRNYPDAHIFCCVGPMLWGTGLDLCRSYVTEVVNDCNRSGDLKVYFVEFPQQDGSTGYGENWHPSIATHQLMAERLTAEIKNKLGW
notes: as for B2
For B3, in the data set “purified protein [8]”, the Km was 186 µM and the kcat is reported as 2,976 min-1.

B4: CtCE2 (Acetivibrio thermocellus ATCC 27405) (protein)
chain: SQTPDEDNPGILYNGRFDFSDPNGPKCAWSGSNVELNFYGTEASVTIKSGGENWFQAIVDGNPLPPFSVNATTSTVKLVSGLAEGAHHLVLWKRTEASLGEVQFLGFDFGSGKLLAAPKPLERKIEFIGDSITCAYGNEGTSKEQSFTPKNENSYMSYAAITARNLNASANMIAWSGIGLTMNYGGAPGPLIMDRYPYTLPYSGVRWDFSKYVPQVVVINLGTNDFSTSFADKTKFVTAYKNLISEVRRNYPDAHIFCCVGPMLWGTGLDLCRSYVTEVVNDCNRSGDLKVYFVEFPQQDGSTGYGEDWHPSIATHQLMAERLTAEIKNKLGW
notes: as for B2
Consider B4, for which, in “purified protein [8]”, the Km was 165 µM and the kcat is on record as 7,032 min-1.

B5: CjCE2B (Cellvibrio japonicus Ueda107) (protein)
chain: ADSTKPLPLHIGGRVLVESPANQPVSYTYSWPAVYFETAFKGQSLTLKFDDDQNIFRLIVDDKAPVVINKPGKVDYPVESLAPGKHRVRLEKLTETQSTSGRFLGFYTDPSAKPLALPKRKRQIEFIGDSFTVGYGNTSPSRECTDEELFKTTNSQMAFGPLTAKAFDADYQINASSGFGIVRNYNGTSPDKSLLSLYPYTLNNPDQLYHNKHWKPQVIVIGLGTNDFSTALNDNERWKTREALHADYVANYVKFVKQLHSNNARAQFILMNSDQSNGEIAEQVGKVVAQLKGGGLHQVEQIVFKGLDYSGCHWHPSANDDQLLANLLITHLQQKKGIW
notes: mature form (signal peptide removed), C-terminal His6 tag, pET22b, E. coli BL21; model ordered 26-361; Cys-333, Trp-335, Tyr-206
On to B5, for which, in the data set “purified protein [7]”, the Km amounted to 262 µM and the kcat is recorded as 49,820 min-1.

(Values after paper PMC2661963, “The Active Site of a Carbohydrate Esterase Displays Divergent Catalytic and Noncatalytic Binding Functions” (PLoS Biology, 2009).)
